Laboratory results: publication PMC5766580, “Each protomer of a dimeric YidC functions as a single membrane insertase” (Scientific Reports, 2018)

Target: the molecule itself
Assay: native gel or EMSA; Blue Native PAGE of inner membrane vesicles from a cell lysate, Western blot

B1: cysteine-less YidC (YidC0), monomeric construct (natural protein, E. coli, UniProt P25714 1-548, looked up)
chain: MDSQRNLLVIALLFVSFMIWQAWEQDKNPQPQAQQTTQTTTTAAGSAADQGVPASGQGKLISVKTDVLDLTINTRGGDVEQALLPAYPKELNSTQPFQLLETSPQFIYQAQSGLTGRDGPDNPANGPRPLYNVEKDAYVLAEGQNELQVPMTYTDAAGNTFTKTFVLKRGDYAVNVNYNVQNAGEKPLEISSFGQLKQSITLPPHLDTGSSNFALHTFRGAAYSTPDEKYEKYKFDTIADNENLNISSKGGWVAMLQQYFATAWIPHNDGTNNFYTANLGNGIAAIGYKSQPVLVQPGQTGAMNSTLWVGPEIQDKMAAVAPHLDLTVDYGWLWFISQPLFKLLKWIHSFVGNWGFSIIIITFIVRGIMYPLTKAQYTSMAKMRMLQPKIQAMRERLGDDKQRISQEMMALYKAEKVNPLGGSFPLLIQMPIFLALYYMLMGSVELRQAPFALWIHDLSAQDPYYILPILMGVTMFFIQKMSPTTVTDPMQQKIMTFMPVIFTVFFLWFPSGLVLYYIVSNLVTIIQQQLIYRGLEKRGLHSREKKKS
notes: membrane insertase YidC of E. coli, the plasmid-encoded yidC gene; cysteine 423 replaced by serine; Copies 2 is the dimeric form seen on Blue Native PAGE. 'Full length' rests on the words 'the yidC gene'; also called YidC-C0; monomeric YidC0; source: E. coli MK6, from plasmid pGZ119-YidC0, in inner membrane vesicles from a cell lysate
- stoichiometry N: 2
